Read-outs that look alike come from different tables or passages of the source.
hCdc14A: Cdc14A phosphorylation mutants (S351,363A and S351,363D)
localisation_or_trafficking (phosphorylation at S351): no change
localisation_or_trafficking (phosphorylation at S363): no change
